# Assay: yeast display, Sf9 membrane polyspecificity reagent, FACS + sequencing; frameworks hold sequencing errors
# How it was run: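 In a synthetic yeast display library (Saccharomyces cerevisiae BJ5465), nanobody expression was induced with galactose for 36–48 hours. FACS gates were set low and high (top ~1%) using anti-HA fluorescence for expression and streptavidin fluorescence for binding of the Sf9 membrane reagent. Each polyreactivity label is drawn from the gate of origin.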
row,Sequence,polyreactivity (PSR sort gate)
1,QVQLVESGGGLVQAGGSLRLSCDASGRTFFYNAMGLYRQAPGKERELVAAISKNGGNTYYADSVKGRFTISRDNAKNTVYLQMNSLKPEDTAVYYCAARQSRTGPDRNDYWGQGTQVTVSS,high polyreactivity
2,QVQLVESGGGLVQPGGSLRLSCAASGSIFYRNAMGWYRQAPGKERELVAAITWSGVNTYYADSVKGRFTISRDNAKNTVYLQMNSLKPEDTAVYYCAVPSRYWLNRGFDYWGQGTQVTVSS,low polyreactivity
3,QVQLVETGGGLVHAGGSLRISCAASGLTFRGNAMGWYRQAPGKERELVATISSGGITNYADSVKGRFTISRDNAKNTVYLQMNSLKPEDTAVYYCAADWFVHKPRYQNSFDYWGQGTQVTVSS,low polyreactivity
4,QVQLVESGGGLVQAGGSLRLSCAASGRIFGYYAMGWYRQAPGKERELVAAISSGGNTNYADSVKGRFTISRDNAKNTVYLQMYSLKPEDTAVFYCAAYHFSFGWIRVDYWGQGTQVTVSS,high polyreactivity
5,QVQLVESGGGLVQAGGSLRLSCAASGRTFTPYAMGWYRQAPGKERELVATISGGGSTHYADSVKGRFTISRDNAKNTVYIQRNSLKPEDTAVYYCSPSRDTVGRGPIQRDYWGQGTQVTVSS,low polyreactivity
6,QVQLVESGGGLVQAGGTLRLSCDASGRTFHVYAMGWYRHAPGKERELVAAISGRTGSTYYADSVKGRFTISRDIAKNTVYLQMNSLKPEDTAVYYCAKGYSYGWWGGFGYWGQGTQVTVSS,high polyreactivity
7,QVQLVESGGGLVQAGGSLRLSCAASGRIFYRYAMGWYRQAPGKERELVATISSGGSTNYADSVKGRFTISRDNAKNTVYLQMNSLKPEDTAVYYCARQSLRYSYVSRDYWGQGTQVTVSS,low polyreactivity
8,QVQLVESGGGLVHAGGRLRLSCTASGGIFRYYAMGWYRQAPGKERELVAGISRSGGSTHYADSVKGRFTISRDNAKNTVYLQMNSLKPEDTAVYYCAADTYFTKYDYWGQGTQVTVSS,high polyreactivity
9,QDQLVESGGGLVQAGGSLRISCAASGRIFYYYGMGWYRQAPGKEWELVAAITSDGDTNYADSVKGRLTISRDNAKNTVYLQMNSLKPADTAVYYCAGKWDWGYWRGFQYGFNYWGQGTQVTVSS,low polyreactivity
10,QVQLVESGGGLVQAGGSLRLSCAASGSTFYYYTMGWYRQAPGKERELVAISWDGDSTYSADSVKGRFTISRDNAKNTVYLQMNSLKPEDTAVYYCAAADYYLPDDVSDYVDANFDYWGQGTQVTVSS,low polyreactivity
11,QVQLKESCGGLVQAGGSLRLSCAASGTITYAPHKGWYRQAPGKERELVAGITIGGTTYYADSVKGRFTISRDNAKNTVYLQMNSLSPGDTAVYYCAAHSEQYTPFYYWGQGTQVTVSS,low polyreactivity
12,QVQLVESGGGLVQAGGSLRLSCAASGRIFTSYAMGWYRQAPGKERELVATITGSTASTYYADSVKGRFTISRDNAKNTVYLQMNSLKPEDTAVYYCAARSYSTYFRYYYWGQGTQVTVSS,high polyreactivity
13,QVQLVESGGGLVQAGGSLRLSCAPSGITFRFYAMGWYRQAPGKEREFVAAISRSDSSYYADSVKGRFTISRDNAKNTVYLHMNSLKPEDSAVYYCAADSYRSAQGLDYWGQGSQVTVSS,high polyreactivity
14,QVHLVESGGGLVQAGGSLRLSGAASGSISGLYAMGCYRQAPGKEREFVARIRWRGDSTYYADSVKGRFTISRDNAKNTVYLQMNSLKPEDTAVYYCAAGLYLFQIWFVNEYDYWGQGTQVTVSS,high polyreactivity
15,QVQLEESGGGLVQAGGSLRLSCAASGIIFQRNDMGWYRQAPGKERELVANIRDGGITYADSVKGRFTISRDNAKNTVYLQMNSLKPEDTAVYYCARDDTSPGYCDQSSNAAYYYWGQGTQVTVSS,low polyreactivity
16,QVQLVESGGGLVQAGGSLRLSCAASGRIFYGNAMGWYRQAPGKERELVARISSGSSTNYADSVKGRFTISRDNAKNTVYLQMNSLKPEDTAVYYCAARYTARRQSYGYWGQGTQVTVSS,high polyreactivity
17,QVQLVESGGGLVQAGGSLRLSCAASGRIFGAYAMGWYRQAPGKERELVAVITTDGSTTYADSVKGRFTISRDNAKNTVYLQMNSLKPEDTAVYYCAAYGGNGQYYSQYDYWGQGTQVTVSS,low polyreactivity
18,QVQLVESGGGLVQAGGSLRLSCAASGLTFKVYDMGGYRQAPGKERELVAAIWSDGDTYYADSVKGRFTISRDNAKNTVYLQMNSLKPEDTAVYYCAADPVWTVHFVFGNKYDYWGQGTQVTVSS,low polyreactivity
19,QVQLVESGGGLVQAGGSLRLSCAASGSIFITYAMGWYRQAPGKEMELVAAIRDSGDRTYYADSVKGRFTISRDNAKNTVYLQMNSLKPVDTAVYYCNARWEEPLKYDYWGQGTQVTVSS,low polyreactivity
20,QVQLVESGGGLVQAGGSLRLSCAASGRTFLRNAMGWYRQAPGKERELVAAITSSGGRTYYADSVKGRFTISRDNAKNTVYLQMNSLKPEDTAVYYCAVDVTVREWFEYYYWGQGTQVTVSS,high polyreactivity
21,QVQLVESGGGLVQAGGSLRLSCAASGRIFYTYAMGWYRQAPGKERELVAAITSSGGRTYYADSVKGRFTISRDNAKNTVYLQMNSLKPEVTAVYYCATRYPWGWAMNYWGQGTQVTVSS,high polyreactivity
22,QVQIVESGGGLVQAGGSLRLSCAASGSIFTPYAMGWYRQATGKERELVADIDASGGGTYADSVKGRFTISRDNANNTVYLQMNSLKPEDTAVYYCNTDPYSSAWYNYDYWGQGTQVTVSS,low polyreactivity

row,Sequence,polyreactivity (PSR sort gate)
1,QVQLVESGGGLVQAGGSLRLSCAASGFTFRVYAMGWYRQAPGKERELVAAISVRGDSTYYADSVKGRFTISRDNAKNTVYLQMNSLKPEDTAVYYCNAALLGKQYYSNPNYDYWGQGTQVTVSS,high polyreactivity
2,QVQLVESGGGLVQAGGSLRLSCAASGRIFTYYTMGWYRQAPGKERELVASITGGGGRTYYADSVKGRFTISRDNAKNTVYLQMNSLKPEDTAVYYCNARYPYPYWYTSYDYWGQGTQVTVSS,high polyreactivity
3,QVQLVESGGRLVQAGGSLRLSCAASGSIFKYYVMGWYRQAPGKERELVAAISSGGGSTYYADSVKGRFTISRDNAKNSVYLQMNSLKPEDTAVYYCNKKYRSRWQGPFDYWGQATQVTVSS,high polyreactivity
4,QGQLVESGGGLVQAGGSLRLSCAASGSIIRSYAMGWYRQAPGKERELVASISRRGGSTYYADSVKGRFTISRDNAKNTVYLQMNSLKPEDTAVYYCAAVRYNSRVSTTPSEMYYWGQGTQVTVSS,low polyreactivity
5,QVQLVESWGGLVQAGGSLRLSCAASGSTFDVNAMGWYRQAPGKERELVAAISWNSGSTYYADSVKGRFTISRDNAKNTVYLQMNSLKPEDTAVYYCAARNPFNHPLDYWGQGTQVTVSS,high polyreactivity
6,QVQLVESGGGLVQAGGSLRLSCAASGNIFGSNAMGWYRQAPGKERELVAAISGSNGGTYYADSVKGRFTISRDNAKNTVYLQMNSLKPEDTAVYYCNADFFSRWGYRYMDYWGQGTQVTVSS,low polyreactivity
7,QVQLVESGGGLVQAGGSLRLSCAASGRTFGLYAMGWYRQSPGKERELVATISRGGSTYYADSVKGRFTISRDNAKNTVYLQMNSLKPEDTAVYYCNAAKYTWYYGYNYWGQGTKVTVSS,high polyreactivity
8,QVQLVESGGGLVQAGGSLRLSCAASGSTFYRYAMGWYRQAPGKERELVAAISSGGRTYYADSVKGRFTISRDNAKNTVYLQMNSLKPEDTAVYYCAADDSEGFDYWGQGTQVTVSS,high polyreactivity
9,QVQLVESGGGLVQAGGSLRLSCAASGFTFPYYAQGWYRQAPGKETELVATISTGSGVSTYDADSVKGRFTISRDNAKNTVYLQMNSLKPEDTAVYYCAAVFGWRRYVTYDYWGQGTQVTVSS,low polyreactivity
10,QVQLVESGGGLVQAGGSLRLSCAASGSTFPHNPMGWYRQQPGKERELVAAISVGGGSKHYADSVKGRFTISRDNAKNTVYFQMNSLKPEDTAVYYCAKDYAYQYSFVTYDYWGQGTLVTVSS,low polyreactivity
11,HVQLVESGGGLVQAGGSLRLSCAASGLTFDVNAMGWYRQAARKERELVAAITADDGSTYYADSVKGRFTISRDNAKNTVYLQMNSLKPEDTAVYYCAADYVNLPYIMDYWGQGTQVTVSS,low polyreactivity
12,QVQLVESGGGLVQAGGSLRLSCAASGRTFGTYAMGWYRQAPGKERELVAVITNGGGTYYADSVKGRFTISRDNAKNTVYLQMNSLKPEDTAVYYCNTDRYGLRRWVYSYWGGYDYWGQGTQVTVSS,low polyreactivity
13,QVQLVESGGGLVQAGGSLRLSCAASGSIFALYTMGWYRQAPGKERELVAAISRRGGKTYYADSVKGRFTISRDNAKNTVYLQMNSLKPEDTAVYYCNADRLRSTHDYWGQGTQVTVSS,high polyreactivity
14,QVQIVESGGGLVQAGGSLRISCAASGIIFYAYAMGWSRQAPGKEREFVAAINNSGGRTYYADSVKGRFTISRDNAKNTVYLQMNSLKPEDTAVYYCAVYSYYRRTYRREMDYWGQGTQVTVSS,high polyreactivity
15,QVQLVESGGGLVQAGGSLRLSCAASGYNFSIYAMGWYRQAPGKERELVAAIRSDARTYYADSVKGRFTISRDNAKNTVYLQMNSLKPEDTAVYYCAADQYSYAANRPFYRGYYWGQGTQVTVSS,high polyreactivity
16,QVQLVESGGGLVQAGGSLRLSCAASGSIIFRYNMGWSRQAPGKERELVAAITTGGSTNYADSVKGRFTISRDNAKNTVSLQMNSLKPEDTAVYYCNRDNRRWTRAAVRVDFYYWGQGTQVTVSS,high polyreactivity
17,QVQLVESGGGLVQAGGSLRLSCAATGRIFQRNAMGWSRQEPGKEREFVAAISSRGGTTYYADSVKGRFTISRDNAKNTVYLQMNSLKQEDTAVYYCAAGYVHLYYFHEYYWGQGTQVTVSS,high polyreactivity
18,QVQLVESGGGLVQAGGSLRLSCAASGSNFYVYAMGWYRQAPGKERELVAAIRWSGGSTYYADSVKGRFTISRDNANYPVYLQMNSLKPEDTADYYCAADAHPDSVWYGEYDYWGQGTQLTVSS,low polyreactivity
19,QVQLVEAGGGLVQAGGSLRLSCAASGRIIVRNAMGWYLQPPGKESELVAAISWSSGGTYYADSVKGRFTISRDNAKNTVYLQMNSLKPEDTAVYYCNADPSRAGDYWGQGTQVTVSS,low polyreactivity
20,QVQLVDSGGGLVQAGGSLRLSCAASGRTISGYAMGWYRQAPGKERELVAAITSRGGRTYYADSVKGRFTISRDNAKNTVYLQMNSLKPEDTAVYYCAAYRRLTLYDYWGQGTQVTVSS,high polyreactivity
21,QVQLVESGGGLVQAGGSLRLSCAASGRIFFPYAMGWYRQAPGKERELVAAINYSGGSTYYADSVKGRFTISRDNAKNTVYLQMNSLKPEDTAVYYCADGYFWALYVRKYDYWGQGTQVTVSS,high polyreactivity

# — the nanobody polyreactivity screen of Harvey et al. (2022)
